# Assay results from patent publication US20250090676A1 (SUTRO BIOPHARMA, published 2025).
# B1: SRP1848-G10 (antibody, V domains shown)
# VH: EVQLVESGGGLVQPGSSLRLSCAASGFNIRSTDIHWVRQAPGKGLEWVAYITPAGGATYYADSVKGRFTISADTSKNTAYLQMNSLRAEDTAVYYCARYPYWFAGYIDYWGQGTLVTVSS
# VL: not shown
# notes: HC variant paired with trastuzumab LC, cell-free expressed, HIS- and FLAG-tagged; also called Antibody 53
# B2: SRP1848-G09 (antibody, V domains shown)
# VH: EVQLVESGGGLVQPGGSLRLSCAASGFNIRGTDIHWVRQAPGKGLEWVAYITPAGGATFYADSVKGRFTISADTSKNTAYLQMNSLRAEDTAVYYCARHEYWFSGYMDYWGQGTLVTVSS
# VL: not shown
# notes: HC variant paired with trastuzumab LC, cell-free expressed, HIS- and FLAG-tagged; also called Antibody 52
# B3: SRP1848-A02 (antibody, V domains shown)
# VH: EVQLVESGGGLVQPGGSLRLSCAASGFNISGFRIHWVRQAPGKGLEWVAGIYPESGATYYADSVKGRFTISADTSKNTAYLQMNSLRAEDTAVYYCARHLYVWDWVLDHVLDYWGQGTLVTVSS
# VL: not shown
# notes: HC variant paired with trastuzumab LC, cell-free expressed, HIS- and FLAG-tagged; also called Antibody 2
# B4: SRP1848-G01 (antibody, V domains shown)
# VH: EVQLVESGGGLVQPGGSLRLSCAASGFNISRHSIHWVRQAPGKGLEWVGWIAPNDGSTDYADSVKGRFTISADTSKNTAYLQMNSLRAEDTAVYYCARGSWAWRSGYSYFLDYWGQGTLVTVSS
# VL: not shown
# notes: HC variant paired with trastuzumab LC, cell-free expressed, HIS- and FLAG-tagged; also called Antibody 47
# B5: SRP1848-H01 (antibody, V domains shown)
# VH: EVQLVESGGGLVQPGGSLRLSCAASGFNIRTQSIHWVRQAPGKGLEWIGDIFPIDGITDYADSVKGRFTISADTSKNTAYLQMNSLRAEDTAVYYCARGSWSWPSGMDYYLDYWGQGTLVTVSS
# VL: not shown
# notes: HC variant paired with trastuzumab LC, cell-free expressed, HIS- and FLAG-tagged; also called Antibody 55
# B6: SRP1848-G03 (antibody, V domains shown)
# VH: EVQLVESGGGLVQPGGSLRLSCAASGFNISTYYIHWVRQAPGKGLEWVGGITPSDGFTDYADSVKGRSTISADTSKNTAYLQMNSLRAEDTAVYYCARGSWSWPSGHGYFLDYWGQGTLVTVSS
# VL: not shown
# notes: HC variant paired with trastuzumab LC, cell-free expressed, HIS- and FLAG-tagged; also called Antibody 48
# B7: SRP1848-E03 (antibody, V domains shown)
# VH: EVQLVESGGGLAQPGGSLRLSCAASGFNIGNYYIHWVRQAPGKGLEWVGGITPRDGFTDYADSVKGRFTISADTSKNTAYLQVNSLRAEDTAVYYCARGSWSWPAGHSYYLDYWGQGTLVTVSS
# VL: not shown
# notes: HC variant paired with trastuzumab LC, cell-free expressed, HIS- and FLAG-tagged; also called Antibody 33
# B8: SRP1848-D03 (antibody, V domains shown)
# VH: EVQLVESGGGVVQPGGSLRLSCAASGFNIRYFSIHWVRQAPGKGLEWVGDIFPNDGSTDYADSVKGRFTISADTSKNTAYLQMNSLRAEETAVYYCARGHWSWPSGYWYYLDYWGQGTLVTVSS
# VL: not shown
# notes: HC variant paired with trastuzumab LC, cell-free expressed, HIS- and FLAG-tagged; also called Antibody 25
# Experiments:
# [1] = biological target: T1, human folate receptor alpha (hFOLR1) (human, UniProt P15328 25-234); experiment: FACS, CHO-hFOLR1 cells;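 further: flow cytometry of serially diluted antibodies binding CHO cells stably expressing the receptor, 60 min on ice, mixed with dye-tagged parental CHO as background control, one-site specific fit with Hill slope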
# T1 construct: endogenous on FOLR1-positive KB and Igrov1 cells (cell killing); also called human FolR1; FolRα
# T1 sequence (P15328 25-234 limits assumed): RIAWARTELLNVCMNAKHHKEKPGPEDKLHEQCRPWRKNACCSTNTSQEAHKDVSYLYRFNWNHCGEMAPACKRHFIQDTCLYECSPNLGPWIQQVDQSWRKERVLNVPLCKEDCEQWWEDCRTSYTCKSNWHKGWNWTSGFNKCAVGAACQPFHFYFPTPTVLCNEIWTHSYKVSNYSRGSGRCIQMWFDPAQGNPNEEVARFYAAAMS
# [2] = biological target: T1, human folate receptor alpha (hFOLR1); experiment: cell-based or functional assay
# [3] = biological target: T2, murine folate receptor alpha (mouse, UniProt P35846 25-232); experiment: FACS, CHO-mFOLR1 cells;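 further: flow cytometry binding of serially diluted test antibodies to transfected CHO cells on ice, mean fluorescence intensity, parental CHO cells give background, Kd from one-site specific binding fit with Hill slope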
# T2 construct: Expressed on the surface of stably transfected CHO cells; also called mouse FolR1; CHO-mouse FolR1
# T2 sequence (P35846 25-232 limits assumed): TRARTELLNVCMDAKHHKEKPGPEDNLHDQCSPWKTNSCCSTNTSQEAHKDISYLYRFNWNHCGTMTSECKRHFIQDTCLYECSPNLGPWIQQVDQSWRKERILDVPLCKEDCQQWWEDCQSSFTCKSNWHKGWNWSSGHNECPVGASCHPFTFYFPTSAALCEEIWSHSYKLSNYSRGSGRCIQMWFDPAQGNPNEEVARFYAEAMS
# Procedure: CHO cells were transfected to stably express human (CHO-hFOLR1), cynomolgus (CHO-cFOLR1), or mouse (CHO-mFOLR1) target molecule FOLR1 on the cell surface. Parental CHO cells were used as a negative control to determine background binding levels. Parental CHO and stably transfected CHO-hFOLR1, CHO-cFOLR1, and CHO-mFOLR1 cells were cultured in Ham's F-12: high glucose DMEM (50:50) (Corning, Cellgro-Mediatech) supplemented with 10% heat-inactivated fetal bovine serum (Corning, Cellgro-Mediatech), 1% Penicillin/Streptomycin (Corning, Cellgro-Mediatech) and 2 mmol/L-glutamax (Life Technology).
# A mixture of fluoresecent-labeled parental CHO cells and unlabeled CHO-hFOLRlcells were prepared as follows. Parental CHO cells were washed twice in PBS and incubated in PBS containing with 1 nM CellTrace™ Oregon Green488® (Life Technologies) at 37° C. for 30 minutes. Labeled parental CHO cells were then washed 2× with Ham's F-12 media and 2× with FACS buffer (PBS with 1% bovine serum albumin). Unlabeled CHO-hFOLR1 cells were similarly washed and prepared. Labeled parental CHO and unlabeled CHO-hFOLR1 cells were combined at 1:1 ratio and seeded at 50 μL per well (200,000 cells per well) in 96 well polypropylene plates. Cells were mixed with 50 μL of test antibodies (i.e., anti-FOLR1 variants) serially diluted in FACS buffer and incubated on ice for 60 mins. […] Data were analyzed using FlowJo® software (FlowJo, LLC; Ashland, OR) to determine mean fluorescence intensities. Binding constants were calculated using the statistical software, GraphPad Prism (GraphPad Software; La Jolla, CA) using the nonlinear regression equation, one site-specific binding with Hill slope. Secondary antibody alone was used as a control, in addition to measuring non-specific antibody binding to CHO parental cells.
# [4] = biological target: T3, cynomolgus monkey folate receptor alpha (cynomolgus monkey, UniProt P15328 25-234 (human entry)); experiment: FACS, CHO-cFOLR1 cells
# T3 construct: Expressed on the surface of stably transfected CHO cells; also called cyno FolR1; CHO-cyno FolR1
# T3 sequence (P15328 other isoform, or with tags, fused parts or gaps limits assumed): as the sequence (P15328 25-234 limits assumed) above, with I2T, W4R, R37K, Q117R, A146P, H171Y counted along it
Binder,Bmax (MFI) [1] [MFI],Kd [1] [nM],"Igrov, 2° Antibody Cell Killing, Nb-SC239: EC50 [2] [nM]","Igrov, 2° Antibody Cell Killing, Nb-SC239: Span [2] [%]","KB, 2° Antibody Cell Killing, Nb-239: EC50 [2] [nM]","KB, 2° Antibody Cell Killing, Nb-239: Span [2] [%]",Bmax (MFI) [3] [MFI],Kd [3] [nM],Bmax (MFI) [4] [MFI],Kd [4] [nM]
B1,25300,0.49,0.019,79,0.046,97,2890,4.3,14200,0.24
B2,25100,0.59,0.036,83,0.073,97,2180,6.4,17700,0.35
B3,24700,0.64,0.039,71,0.028,94,18600,2.4,18500,0.5
B4,27400,0.98,0.022,66,0.07,91,1990,4.6,20900,0.56
B5,27000,0.59,0.016,67,0.049,96,3950,33.8,17200,0.28
B6,26400,0.82,0.021,76,0.064,91,2220,2.4,19200,0.44
B7,26700,0.76,0.027,73,0.057,94,5940,0.5,17400,0.43
B8,26000,1.9,0.038,76,,98,3170,9.5,14100,0.58
